Experimental data taken from the supplement of paper PMC10126150.
± gives the standard deviation of the averaged measurements.

Test system: ATP
Assay: switch fluorescence ratio, 500 uM ATP over buffer (Cy3 cluster intensity, sum of 5 cycles each) (fold (ratio)); higher = stronger signal-on switching upon ATP binding; sequences stand for … in TCGTCGGCAGCGTCAGATGTGTATAAGAGACAGTTTTTTTTTTTTTTTTTTTTTTTTT…TC
Conditions: aptamer strand: ATP DNA aptamer (quencher-CACCTGGGGGAGTATTGCGGAGGAAGG + anchor), 100 nM annealed; ATP concentration: 500 uM
Outline: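 Exposure to 500 uM ATP lasted 15 min at 22 °C before imaging, and a selection-buffer image was taken beforehand, for Cy3-labelled switching-strand clusters on a modified Illumina MiSeq flow-cell annealed to 100 nM quencher-labelled ATP aptamer. Five buffer/ATP cycles were run with NaOH stripping and re-annealing between them. The fluorescence ratio per cluster is summed target-cycle over summed buffer-cycle Cy3 intensity, averaged per switch-domain sequence. Clusters outside 100-1000 RFU were excluded.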

Sequence	switch fluorescence ratio
TAGGCAGGCG	1.01 ± 0.1
GACAGCAGGT	1.07 ± 0.011
CAGGCGAGTG	0.96 ± 0.014
GAGGAGGGGC	1.02 ± 0.054
GTTACACTCA	1.032 ± 0.002
GGGTGAAATA	1.02 ± 0.019
AACTGTTGGT	0.978 ± 0.025
GGCTTTTGGG	1.03 ± 0.088
GGGGAATTGA	0.9919 ± 0.0013
CAGCGTATTT	1.03 ± 0.036
AGAGCGTGGT	0.999 ± 0.023
AGGTGAAGGG	1.02 ± 0.018
ATGCTATACT	1.6 ± 0.022
CAGGGGCTCG	1.01 ± 0.036
AGTTAGGCAA	1.01 ± 0.014
CATACATCCG	1.07 ± 0.038
GACGGCTGGT	1.01 ± 0.021
TCCACCGTTC	1.66 ± 0.77
AGTAATGTGC	0.996 ± 0.022
ATATCGGAGG	0.99 ± 0.041
CGACCACTTT	1.04 ± 0.025
GGTTTTAGGG	0.996 ± 0.039
ATTGGCCATC	0.997 ± 0.0048
TCAGTAGGCA	1.01 ± 0.011
GAGTTTGGAC	0.985 ± 0.058
AAACGGAGTG	1 ± 0.023

Sequence	switch fluorescence ratio
TTTGATTGAG	0.953 ± 0.012
ATCTGTGATA	0.977 ± 0.048
TAAATTATGG	0.996 ± 0.021
CTCAGCAGTC	1.2 ± 0.034
GCATTAAGGA	1.058 ± 0.008
TTGAGCATAG	1.43 ± 0.44
AATAGTGTCC	1.01 ± 0.032
ATCATTATAT	0.99007 ± 0.00051
TATTGACTTT	1.28 ± 0.35
GTGAGTTTTA	0.971 ± 0.019
AGGTTGGTAA	0.969 ± 0.01
ACAGCATGGA	1.04 ± 0.048
TTTGGTTCCT	1.014 ± 0.0091
AGGGGGGAGC	1.01 ± 0.029
GGTGGGATGC	1.02 ± 0.076
GCTAGAAGCG	1.001 ± 0.0099
AGGGAGTATG	1.01 ± 0.023
CGCAGTCTGT	1.12 ± 0.012
GAGTGGAGGC	1.03 ± 0.05
AGTTGATTGG	0.983 ± 0.027
AATTAGGGAA	1.01 ± 0.023
AGGGGGTT	1 ± 0.077
GGGGAAGAAA	0.995 ± 0.027
GAATGGCATG	0.991 ± 0.034
AGTTGCTAAG	0.986 ± 0.035
ATTTCACAAT	0.9798 ± 0.0028

Sequence	switch fluorescence ratio
AGGAATATTT	1.04 ± 0.095
AAGAGATATG	1.02 ± 0.059
TTTTGAAGGA	1.01 ± 0.027
TTTAATATCT	0.998 ± 0.015
AAGTTATCTG	1.03 ± 0.027
AGGAAGGTCG	0.969 ± 0.013
AAAGAATTTC	0.981 ± 0.038
CCTTTTTGGT	1.016 ± 0.01
GGGAGAATTG	1.01 ± 0.037
GTGATTTCGG	1.022 ± 0.0095
GTCTGATTTG	0.999 ± 0.023
GATACCATGG	0.985 ± 0.03
AAAGTGTGTT	0.993 ± 0.025
GGTCTACTAG	0.999 ± 0.04
CATTTCAAGG	1 ± 0.043
CGGTGGGTCT	1.006 ± 0.0015
GTGTTAGTCG	1.02 ± 0.1
TGAAGTTAGC	0.977 ± 0.011
GTTTGGAGGT	0.992 ± 0.03
CGGGGAAGCG	1.01 ± 0.021
TATATGCCGT	1.02 ± 0.066
AACACAAGGT	1.02 ± 0.017
TTAGAATACG	1 ± 0.045
ACTCGTTGTT	1.02 ± 0.024
ACCGGGAGAT	0.994 ± 0.042
CAGGCTAGGT	0.9873 ± 0.0049

Sequence	switch fluorescence ratio
TCGGTTCGTG	1.01 ± 0.054
AGGTAGTGGG	0.974 ± 0.029
ATAGTGTGGC	0.952 ± 0.029
TCTGGTAGGG	0.99 ± 0.01
CAACGGGGGG	0.998 ± 0.029
AATCTGGACG	1.06 ± 0.048
TTTCCGCAGG	1.24 ± 0.17
AGATGGTCTG	1.01 ± 0.032
TTTTCGTTTG	1 ± 0.074
GAGTTTGCGT	1.03 ± 0.015
CTATTTGAGG	0.9825 ± 0.004
CTGGCATGGA	1.01 ± 0.021
TTACTTGAGG	1.11 ± 0.13
GAGTAGGAGG	0.974 ± 0.051
TTCGCCTAAG	0.9658 ± 0.0067
AATTTCAAGT	1 ± 0.039
CAATGGGGGT	1 ± 0.038
AGCAATTTCG	1.42 ± 0.081
GGGCAGAGGA	1.0929 ± 0.00017
ACTGATGACG	1.06 ± 0.078
ATGCGGACAG	1.011 ± 0.0083
GGGTTATGGA	0.971 ± 0.021
CGCCGGGGGC	1.03 ± 0.014
TCTGGGTAAT	0.996 ± 0.0013
GCAATAATGC	1.603 ± 0.014
CATGGGAGTT	0.978 ± 0.025

Sequence	switch fluorescence ratio
TATTTGGAGT	1.012 ± 0.0022
AAAATCGAGC	1.02 ± 0.015
TTTTTACCGT	1.12 ± 0.088
TCTTGGTAAT	0.996 ± 0.018
CGGTTAGGCT	1.06 ± 0.012
TCTTATGCGG	0.998 ± 0.019
GCTATTATTA	0.974 ± 0.045
TTTTATGAG	0.999 ± 0.031
GCCAGGGCTT	1.03 ± 0.036
TATTAGGGGG	0.984 ± 0.048
TGGCAGTCGG	0.978 ± 0.019
GCGTTGGGTC	1.02 ± 0.014
ACACGCGCCT	1.08 ± 0.011
TAGAGGGGCG	0.946 ± 0.065
AAACAGGGTG	1.05 ± 0.05
ACTTTGGTCT	1.04 ± 0.051
AACTATTATG	1.003 ± 0.01
AGTTGCGTTG	0.996 ± 0.015
TCGGGGGTCC	1 ± 0.066
GGTTGCGTCT	0.9613 ± 0.003
GTTGTTTAGG	0.953 ± 0.023
GGGGTACAGT	0.9946 ± 0.0091
GACCCAGGTA	2.75 ± 0.18
TCTGGGGGTA	0.982 ± 0.022
CGATACGATT	1.06 ± 0.076
TTCTCTAATG	1.03 ± 0.016

Sequence	switch fluorescence ratio
TTAATTTCGG	0.991 ± 0.065
CGACAGGCAT	1.63 ± 0.063
GTGATGTTGT	0.977 ± 0.037
CCTTGGCTTT	1.53 ± 0.11
GTTAGCGGGG	0.9823 ± 0.0048
TGGGGAAGGT	0.994 ± 0.022
GCCTAATATG	0.9793 ± 0.0083
TAGTGCGCGC	1.03 ± 0.025
ACCAGTCTGG	1.01 ± 0.017
CGTGGCCGCG	0.959 ± 0.012
CGATAGTATA	1.007 ± 0.0082
GAGGTACGCT	1.01 ± 0.021
ACTTTTTAGT	0.986 ± 0.05
AGTTATGTGG	1 ± 0.056
TAACGGGGGT	1.02 ± 0.062
TTAATGGCTA	0.976 ± 0.021
GGTCTAGGGT	1.03 ± 0.025
CCCGGGGGGG	1.1 ± 0.13
TTTTTGACC	1.008 ± 0.0017
GGGAGGCGAT	0.975 ± 0.051
TCAATGGGAA	0.967 ± 0.026
ACGTTGCTGA	1.02 ± 0.028
ATTTTTGGG	1.03 ± 0.035
